Test results: patent US20090123940A1 (Johns Hopkins, published 2009)

Assays:
[1] = target: metabotropic glutamate receptor mGluR5 (UniProt P31424 21-1203, limits assumed); test: biochemical assays, not described further
[2] = target: T1, kainate receptor subunit GluR6 (UniProt P42260 32-908, limits assumed); test: co-clustering in co-transfected 293 cells, immunostaining
T1 construct: whole, on cells

[3] = target: T2, NMDA receptor subunits NR1 and NR2A (UniProt P35439 19-938; Q00959 23-1464); test: as above
T2 construct: whole, on cells; Co-expressed in 293 cells; also called NR1/2A

[4] = target: T3, neuronal glutamate transporter EAAC1 (UniProt P51907 1-523); test: as above
T3 construct: whole, on cells
T3 sequence (looked up): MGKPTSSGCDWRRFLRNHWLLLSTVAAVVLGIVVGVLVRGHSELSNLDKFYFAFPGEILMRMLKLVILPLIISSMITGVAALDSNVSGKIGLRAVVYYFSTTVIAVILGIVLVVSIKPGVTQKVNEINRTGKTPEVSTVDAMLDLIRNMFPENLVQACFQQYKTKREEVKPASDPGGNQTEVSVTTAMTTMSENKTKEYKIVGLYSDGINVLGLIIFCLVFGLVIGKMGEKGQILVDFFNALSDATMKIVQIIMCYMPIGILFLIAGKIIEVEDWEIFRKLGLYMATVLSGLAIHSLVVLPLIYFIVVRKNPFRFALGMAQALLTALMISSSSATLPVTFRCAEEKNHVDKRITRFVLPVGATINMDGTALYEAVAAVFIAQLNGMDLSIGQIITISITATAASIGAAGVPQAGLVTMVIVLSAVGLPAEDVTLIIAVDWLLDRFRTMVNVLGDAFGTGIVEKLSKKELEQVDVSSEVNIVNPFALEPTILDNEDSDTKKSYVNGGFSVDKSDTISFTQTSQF

[5] = target: T4, NMDA receptor subunit NR1 (UniProt P35439 19-938); test: as above
T4 construct: whole, on cells

[6] = target: T5, HA-GluR6 (GluR6 with an N-terminal HA tag) (UniProt P42260 32-908); test: co-IP from co-transfected HEK 293T cells
T5 construct: mature; also called wildtype HA GluR6

[7] = target: T6, EC1 domain of GluR6 (display construct) (UniProt P42260 32-561, limits assumed); test: co-clustering on transfected cells
T6 construct: domain: EC1 domain
T6 sequence (looked up): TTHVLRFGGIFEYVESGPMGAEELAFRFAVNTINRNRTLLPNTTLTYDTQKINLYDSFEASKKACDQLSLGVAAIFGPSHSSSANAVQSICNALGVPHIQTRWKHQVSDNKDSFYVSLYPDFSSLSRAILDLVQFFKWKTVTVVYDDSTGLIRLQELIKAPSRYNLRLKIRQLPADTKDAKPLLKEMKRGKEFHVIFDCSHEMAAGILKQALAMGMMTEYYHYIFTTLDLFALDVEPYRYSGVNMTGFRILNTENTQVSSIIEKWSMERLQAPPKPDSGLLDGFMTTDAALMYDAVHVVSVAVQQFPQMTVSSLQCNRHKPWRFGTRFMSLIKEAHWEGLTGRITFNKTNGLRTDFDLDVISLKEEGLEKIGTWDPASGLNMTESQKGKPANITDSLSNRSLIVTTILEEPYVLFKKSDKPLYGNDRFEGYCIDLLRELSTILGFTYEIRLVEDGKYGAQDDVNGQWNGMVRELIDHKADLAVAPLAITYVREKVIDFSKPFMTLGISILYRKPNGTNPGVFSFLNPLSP

Measured: binding result

Chain of metabotropic glutamate receptor mGluR5 (P31424 21-1203 limits assumed): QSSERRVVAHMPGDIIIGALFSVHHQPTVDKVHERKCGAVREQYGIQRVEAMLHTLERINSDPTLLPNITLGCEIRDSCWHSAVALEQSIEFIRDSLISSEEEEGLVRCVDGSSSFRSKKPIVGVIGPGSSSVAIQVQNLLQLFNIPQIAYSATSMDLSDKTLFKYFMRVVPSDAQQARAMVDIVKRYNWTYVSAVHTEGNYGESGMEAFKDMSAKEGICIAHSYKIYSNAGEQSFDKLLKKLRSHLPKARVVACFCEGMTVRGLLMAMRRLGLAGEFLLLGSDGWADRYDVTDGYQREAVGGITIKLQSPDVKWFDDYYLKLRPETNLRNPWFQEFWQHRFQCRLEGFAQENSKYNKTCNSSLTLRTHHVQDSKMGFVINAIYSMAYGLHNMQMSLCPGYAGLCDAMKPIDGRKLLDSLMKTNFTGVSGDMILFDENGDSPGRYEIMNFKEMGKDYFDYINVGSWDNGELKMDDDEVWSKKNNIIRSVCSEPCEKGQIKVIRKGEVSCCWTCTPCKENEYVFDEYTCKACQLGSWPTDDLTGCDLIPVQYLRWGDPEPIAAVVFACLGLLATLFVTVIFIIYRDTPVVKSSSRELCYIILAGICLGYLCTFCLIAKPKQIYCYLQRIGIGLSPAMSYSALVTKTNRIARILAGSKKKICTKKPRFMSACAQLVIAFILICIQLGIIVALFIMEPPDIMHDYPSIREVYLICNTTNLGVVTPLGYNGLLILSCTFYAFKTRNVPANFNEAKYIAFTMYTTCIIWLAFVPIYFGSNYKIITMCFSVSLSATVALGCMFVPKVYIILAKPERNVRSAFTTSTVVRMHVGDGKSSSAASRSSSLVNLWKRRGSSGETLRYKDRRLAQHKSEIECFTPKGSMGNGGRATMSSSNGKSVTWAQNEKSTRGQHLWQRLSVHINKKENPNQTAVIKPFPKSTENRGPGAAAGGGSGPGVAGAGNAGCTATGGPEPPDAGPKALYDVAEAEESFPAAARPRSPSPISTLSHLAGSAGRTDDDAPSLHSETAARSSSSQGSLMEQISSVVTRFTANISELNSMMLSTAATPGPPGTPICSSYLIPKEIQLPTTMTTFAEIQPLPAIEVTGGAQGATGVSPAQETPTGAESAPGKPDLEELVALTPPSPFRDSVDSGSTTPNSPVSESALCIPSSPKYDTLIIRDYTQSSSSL

B1: Neuronal activity regulated pentraxin (Narp) (ligand)
chain: QAQDNPIPGSRFVCTALPPEAARAGCPLPAMPMQGGALSPEEELRAAVLHWRETVVQQKETLGAQREAIRELTSKLARCEGLAGGKARGTGATGKDTMGDLPRDPGHVVEQLSRSLQTLKDRLESLELQLHTNASNAGLPSDFREVLQRRLGELERQLLRKVAELEDEKSLLHNETSAHRQKTENTLNALLQRVTELERGNSAFKSPDAFKVSLPLRTNYLYGKIKKTLPELYAFTICLWLRSSASPGIGTPFSYAVPGQANEIVLIEWGNNPIELLINDKVAQLPLFVSDGKWHHICITWTTRDGMWEAFQDGEKLGTGENLAPWHPIKPGGVLILGQEQDTVGGRFDATQAFVGELSQFNIWDRVLRAQEIINIANCSTNMPGNIIPWVDNNVDVFGGASKWPVETCEERLLDL
notes: Secreted, glycosylated, disulfide-linked multimer (>220 kDa on non-reducing gels); The signal peptide is called putative; also called neuronal pentraxin 2; untagged Narp
no binding: all assays above
